Test results taken from US20040048377A1.

Target: mouse Grg4 (mouse) (UniProt Q62441)
Assay: cell-based or functional assay

Sequence of mouse Grg4 (mouse) (Q62441 whole entry): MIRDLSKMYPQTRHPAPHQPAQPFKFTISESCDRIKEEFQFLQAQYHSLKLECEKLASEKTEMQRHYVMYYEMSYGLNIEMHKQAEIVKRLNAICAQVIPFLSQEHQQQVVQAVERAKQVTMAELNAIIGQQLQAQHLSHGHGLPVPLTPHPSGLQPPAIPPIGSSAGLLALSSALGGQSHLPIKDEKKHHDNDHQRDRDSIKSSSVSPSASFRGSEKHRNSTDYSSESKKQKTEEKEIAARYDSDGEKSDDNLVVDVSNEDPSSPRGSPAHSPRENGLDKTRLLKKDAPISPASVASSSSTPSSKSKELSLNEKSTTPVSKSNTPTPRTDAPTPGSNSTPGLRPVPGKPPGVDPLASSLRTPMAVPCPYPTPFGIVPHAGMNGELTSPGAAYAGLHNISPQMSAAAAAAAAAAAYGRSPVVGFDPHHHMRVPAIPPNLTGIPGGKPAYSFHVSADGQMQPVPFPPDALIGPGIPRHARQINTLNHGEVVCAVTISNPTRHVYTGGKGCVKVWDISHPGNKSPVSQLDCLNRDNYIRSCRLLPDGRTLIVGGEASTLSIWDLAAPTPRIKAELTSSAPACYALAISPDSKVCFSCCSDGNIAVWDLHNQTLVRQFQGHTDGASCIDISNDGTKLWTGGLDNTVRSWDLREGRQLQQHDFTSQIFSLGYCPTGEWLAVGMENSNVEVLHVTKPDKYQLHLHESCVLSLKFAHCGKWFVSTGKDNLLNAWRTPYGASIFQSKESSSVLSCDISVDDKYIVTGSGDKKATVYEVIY
Sequence of mouse Grg4 (Q62441 whole entry): as above

repressor activity in the UAS-luciferase reporter assay in COS-7 cells, with increasing amounts of co-transfected Grg4 [fold]	Substance
< 10	Gal-Nkx6.2 (full-length Nkx6.2 fused to the DNA binding domain of yeast Gal4) (from UniProt P04386 1-147; P43688 1-289)
< 10	Gal-Nkx6.1 (full-length Nkx6.1 fused to the DNA binding domain of yeast Gal4) (from UniProt P04386 1-147; O35762 1-365)
< 10	Gal-Nkx2.2 (full-length Nkx2.2 fused to the DNA binding domain of yeast Gal4) (from UniProt P04386 1-147)
< 10	Gal-Nkx2.9 (full-length Nkx2.9 fused to the DNA binding domain of yeast Gal4) (from UniProt P04386 1-147; O70584 1-235)
2	Gal-Nkx6.2ΔTN (Nkx6.2 lacking aa 2-73 fused to the DNA binding domain of yeast Gal4) (from UniProt P04386 1-147)
2	Gal-Nkx6.1ΔTN (Nkx6.1 lacking aa 90-113 fused to the DNA binding domain of yeast Gal4) (from UniProt P04386 1-147; O35762 1-89; O35762 114-365)

Target: Nkx6.1ΔTN (Nkx6.1 with the TN domain deleted, Δaa 90-113) (rat) (UniProt O35762)
Assay: immuno-precipitation, 35S-labelled Grg4, Nkx protein on antibody-proteinA-sepharose

Sequence of Nkx6.1ΔTN (Nkx6.1 with the TN domain deleted, Δaa 90-113) (rat) (O35762 other isoform, or with tags, fused parts or gaps mutant): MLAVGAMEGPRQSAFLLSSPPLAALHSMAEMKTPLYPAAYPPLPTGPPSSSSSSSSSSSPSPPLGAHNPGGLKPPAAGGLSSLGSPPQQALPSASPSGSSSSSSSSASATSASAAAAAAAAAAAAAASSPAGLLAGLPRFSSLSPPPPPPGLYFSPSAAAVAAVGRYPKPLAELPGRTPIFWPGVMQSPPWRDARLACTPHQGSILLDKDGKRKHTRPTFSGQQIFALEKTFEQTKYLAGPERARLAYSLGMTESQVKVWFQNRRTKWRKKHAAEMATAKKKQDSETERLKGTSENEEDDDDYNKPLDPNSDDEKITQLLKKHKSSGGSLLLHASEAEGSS

fold reduction of the interaction with Grg4 compared to the full-length protein [fold]	Substance
5	mouse Grg4 (from UniProt Q62441 1-773)
